# Measurements reported in patent publication US20250064853A1 (GYALA THERAPEUTICS SOCIEDAD LIMITADA, published 2025).
# T1: human CD84 on cells (human, UniProt Q9UIB8 22-345)
# T1 construct: the cells were 300.19 cells stably transfected with CD84 full-length DNA, or Raji, Ramos, MOLM-13 cells, lymphocytes and monocytes with their own CD84; also called LY9B; SLAMF5
# T1 sequence: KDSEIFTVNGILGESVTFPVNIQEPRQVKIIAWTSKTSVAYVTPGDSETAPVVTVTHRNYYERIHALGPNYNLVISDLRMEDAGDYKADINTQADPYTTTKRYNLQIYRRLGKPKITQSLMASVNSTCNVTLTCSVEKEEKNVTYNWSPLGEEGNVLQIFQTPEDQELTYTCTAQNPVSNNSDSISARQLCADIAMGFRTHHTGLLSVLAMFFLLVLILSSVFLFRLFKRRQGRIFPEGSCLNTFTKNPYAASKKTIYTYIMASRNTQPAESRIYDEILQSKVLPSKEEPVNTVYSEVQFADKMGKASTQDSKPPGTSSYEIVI
# B1: GYCD84.5.171 (antibody, IgG1, V domains shown)
# VH: EVQLVESGGGLVQPKGSLKLACAASGFTFNIYAMNWVRQAPGKGLEWVARIRSKSNNYARFYADSVKDRFTISRDDSQSMLYLQMNNLKTEDTAMYYCVRPLRSYFSMDYWGQGTSVTVSS
# VL: SIVMTQSPKSMSMSVGERVTLSCKASENVDTYVSWYQQKPEQSPKLLIYGASNRYTGVPDRFTGSGSATDFTLTISSVKAEDLADYHCGQTYSYPWTFGGGTKLEIK
# notes: tested as hybridoma supernatant
# B2: 152-1D5 (antibody, IgG1, V domains shown)
# VH: QVQLQQPGAEVVQPGTSVKLSCKASGYNFTNYWINWVKLRPGQGLEWIGDIYPVSGTTNYNEKFKRKATLTVDTSSSTGNMQLSSLASEDSALYYCASGTGRFAYWGQGTLVTVSA
# VL: DIVLTQSPASLAVSLGQRATISCRASQSVSTSSYSYMHWYQQKPGQPPKLLIKFASNLESGVPARFSGSGSGTDFTLNIHPVEEEDTATYYCQHSWEIPYTFGGGTKLEIK
# notes: tested as hybridoma supernatant; also called anti-CD84 mouse monoclonal antibody 152-1D5
# B3: GYCD84.1-97 (antibody, IgG2a, V domains shown)
# VH: QVQLQQPGAELVKPGTSVKLSCKASGYNFTSYWINWVKLRPGQGLEWIGDIYLGSGSTNYNEKFKSKATLTVDTSSSSAYMQLSSLVSEDSALYYCATSGGYLGYWGQGTTLTVSS
# VL: B2 VL
# notes: as for B1
# Molecular target: T1, human CD84 on cells
# Experiment: flow cytometry, hybridoma supernatant, 300.19 cells transfected with CD84
row,300.19-CD84 binding,Binder
1,93.2%,B1
2,92.5%,B2
3,97.7%,B3
